Laboratory results as given in the supplement of paper PMC10126150.
± gives the standard deviation of the averaged measurements.

system: ATP; test: switch fluorescence ratio, 500 uM ATP over buffer (Cy3 cluster intensity, sum of 5 cycles each) (fold (ratio)); higher = stronger signal-on switching upon ATP binding; sequences stand for … in TCGTCGGCAGCGTCAGATGTGTATAAGAGACAGTTTTTTTTTTTTTTTTTTTTTTTTT…TC; conditions: aptamer strand: ATP DNA aptamer (quencher-CACCTGGGGGAGTATTGCGGAGGAAGG + anchor), 100 nM annealed; ATP concentration: 500 uM
Method in brief: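 Five buffer/ATP imaging cycles were run on Cy3-labelled switching-strand clusters on a modified Illumina MiSeq flow-cell, with NaOH stripping and re-annealing between cycles. In each cycle, clusters annealed to 100 nM quencher-labelled ATP aptamer were imaged in selection buffer, then after 15 min with 500 uM ATP at 22 °C. Per cluster, the fluorescence ratio is summed target-cycle over summed buffer-cycle Cy3 intensity, averaged per switch-domain sequence. Only clusters within 100-1000 RFU were kept.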
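Also: ATP exposure 15 min at 22 °C before imaging.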

Sequence | switch fluorescence ratio
GCTCGGGGGC | 1.008 ± 0.0081
ATTAAATGGC | 1.02 ± 0.012
ATAAAAGGTG | 1.1 ± 0.074
GATGTCTAGT | 0.983 ± 0.015
CGTGCTCTAC | 1.5 ± 0.068
GTTGCAGGGT | 1.004 ± 0.0065
GGGCAAGTGG | 0.959 ± 0.014
CGTGCTTTTC | 1.15 ± 0.22
GAGAATTAGG | 0.964 ± 0.039
CGAGTCCTGT | 1 ± 0.02
TTGTGTTTTG | 1.16 ± 0.39
GGGGGTTATT | 0.989 ± 0.051
TTCTGGGGGA | 0.992 ± 0.039
ACGTGGGGCT | 1.05 ± 0.027
ATATTAGGGC | 1.02 ± 0.015
CGGGAGCTGT | 1.01 ± 0.072
ATAGATGGTG | 0.987 ± 0.025
GATATTAATT | 0.9784 ± 0.0031
ATTATGGGTT | 0.995 ± 0.029
GGGTTGTAGC | 0.9909 ± 0.0027
CCGGCTTAGA | 1.14 ± 0.2
GATATTAGGC | 0.9858 ± 0.009
AGTTCCGAGG | 1.12 ± 0.14

Sequence | switch fluorescence ratio
CATTTTTGGA | 1.003 ± 0.0076
AGAGGTAAGG | 0.983 ± 0.019
TTTGATATGC | 1.116 ± 0.0054
CGCTCGGTTA | 0.956 ± 0.031
ACCAAATAAG | 1.02 ± 0.023
TTGATTTTGG | 0.988 ± 0.026
TGGATACCCT | 1.0117 ± 0.00031
TTAGCGGGAT | 1.01 ± 0.044
CGTCGTGATA | 1.2 ± 0.014
CGCTTAGGTT | 1.06 ± 0.061
TTGGTATGTG | 0.968 ± 0.017
CCAGGCGCTA | 1.611 ± 0.014
CCGCGGGTTG | 1.05 ± 0.02
AGTTGCGGTT | 1.002 ± 0.0018
GGATATGAGG | 1 ± 0.018
GGTATTGGCC | 0.987 ± 0.013
TATGTTAGTC | 0.988 ± 0.054
TAATCCGCGG | 1.14 ± 0.041
TAGGTATGGG | 0.9955 ± 0.002
TCAAGAGGTT | 1.001 ± 0.01
GTAGCTTATC | 2.08 ± 0.067
CTATTGGCAA | 1.06 ± 0.022
TGGAAATACG | 1.06 ± 0.013

Sequence | switch fluorescence ratio
GAGTGCATTG | 1.01 ± 0.015
ACGGAATTTG | 1.04 ± 0.019
AGTGGGTGTT | 1.01 ± 0.045
TGACTTTGAT | 0.95 ± 0.013
TGTGGGGGGA | 0.983 ± 0.037
CCGGGGTCGC | 1 ± 0.026
ATAGGCCTTG | 1.01 ± 0.031
TTAGGATAAT | 1.031 ± 0.0072
TAAGGGGCCA | 1.024 ± 0.0088
GTGTAAAGTT | 0.972 ± 0.021
GCGGGTTAAA | 0.991 ± 0.012
TAGAGGGCAG | 1.03 ± 0.023
TGGGTCGGGC | 0.9905 ± 0.009
CGGATGAGGC | 1.08 ± 0.018
GGAAAAGGGA | 1.01 ± 0.049
AAATGTTGAG | 0.975 ± 0.045
CGGACCGATG | 1.01 ± 0.0094
CATGGTGTGG | 1.01 ± 0.031
AGATTATGGG | 0.974 ± 0.033
TTTGTTGAC | 0.998 ± 0.024
TTGCTTTATT | 0.987 ± 0.016
TATGGGAGGT | 1.04 ± 0.029
ATTCGGGATG | 0.979 ± 0.017

Sequence | switch fluorescence ratio
GGGCAGGGGG | 1.01 ± 0.04
CATAGGGGAG | 1.042 ± 0.01
TGGGTGAGTT | 1.02 ± 0.019
GGGTAGGCAG | 1.18 ± 0.25
ACTCGAGGAT | 1.03 ± 0.013
GAGAGGGCCT | 0.985 ± 0.038
GATCATCGGG | 0.995 ± 0.015
GGAACAGAGG | 0.9769 ± 0.007
ATGAGAGCTT | 0.982 ± 0.011
GGGGGCCGTC | 1.01 ± 0.09
CCCCCCGGGG | 1.61 ± 0.32
CTTAGAAGTT | 1.01 ± 0.027
AAAATTAAGA | 0.982 ± 0.025
TGTTGTGGGA | 0.979 ± 0.019
GTTCCGCCGA | 1.23 ± 0.026
TGAGATAGCT | 0.998 ± 0.033
GATGCAGTGT | 1.05 ± 0.014
TCGCCGCTTT | 1.76 ± 0.11
AGGGTGGTGT | 0.976 ± 0.039
TTGGGGGAAC | 1 ± 0.014
TTTTTGCCGC | 1.02 ± 0.012
TTTATTGAGG | 1.03 ± 0.011
TTTAGAAATA | 1.05 ± 0.022

Sequence | switch fluorescence ratio
GATTTTATGT | 1.05 ± 0.086
TGCAGCTGTA | 1.04 ± 0.014
TTCCCTAATG | 1 ± 0.033
GATTTGGAGA | 1 ± 0.017
GACTTATTTA | 1.01 ± 0.043
TAATTGATGT | 1.01 ± 0.06
TATTGCTTCT | 0.9913 ± 0.0021
AAGCGTCTGG | 1.02 ± 0.024
GTCACACTT | 1.01 ± 0.0073
GGTTTGGTCG | 1.01 ± 0.037
TCTGGCGTAA | 1.79 ± 1.1
GCCGAGCCGG | 0.972 ± 0.011
TTGGCCGATG | 1.001 ± 0.0098
TCATCGTCT | 1.01 ± 0.023
TTCTCACTTG | 1.02 ± 0.03
GGGGGTAGCG | 1.02 ± 0.028
GGGAGTAGTT | 1.01 ± 0.025
TAATTTCTAC | 1.005 ± 0.0054
AGGGTGGGTA | 0.9768 ± 0.0053
TGTTTATATC | 0.9856 ± 0.0076
GAAGTGTGAA | 1 ± 0.022
GCTCGGGTGT | 1.15 ± 0.33
TTTGATACCA | 1.005 ± 0.0051

Sequence | switch fluorescence ratio
CGCGTGGTA | 1.07 ± 0.013
ATGGTCGTCT | 0.971 ± 0.027
AGTTGTGGAG | 0.986 ± 0.018
CGTTGCCGTT | 1.06 ± 0.1
AATTAAGGGT | 0.9881 ± 0.0058
TTGGGCGGGA | 0.968 ± 0.099
TAAATTAGGA | 0.988 ± 0.074
CAATATGAAT | 1.02 ± 0.0057
CATTATTAAA | 0.976 ± 0.025
ATTGCCGCTC | 1.04 ± 0.036
CGTAATGGGG | 1.022 ± 0.01
ATTTGTTTAT | 1.09 ± 0.17
AAAGCGGGGC | 1.02 ± 0.015
GGTGGGGGG | 0.977 ± 0.012
TGTTCTACAG | 1 ± 0.02
AGTATGTGGG | 0.996 ± 0.048
AGGGATTCAT | 1.02 ± 0.032
TTATATTAG | 0.9817 ± 0.001
CGGGGGCAAG | 1.07 ± 0.016
GAATGAGCGT | 0.9799 ± 0.003
GGGTTGGAGT | 0.9965 ± 0.0081
TGAAGGGGCA | 0.951 ± 0.041
GGGTTGAGCG | 1.02 ± 0.012

Sequence | switch fluorescence ratio
CAGTCTTTTT | 1.03 ± 0.022
TTATCAAGGG | 0.975 ± 0.025
AACTCTTCTT | 1.04 ± 0.035
TGAGGTGCGG | 0.996 ± 0.024
CTTTAATCC | 1.27 ± 0.48
TGGTAAACGT | 1.05 ± 0.026
ACGAGGGCGT | 1.03 ± 0.017
AATAATGCGT | 0.994 ± 0.034
GCCATCAAGA | 0.995 ± 0.062
TGCAGGGCGT | 1.01 ± 0.031
GGTTGAGGCG | 0.981 ± 0.054
AGGCGGTATC | 1.047 ± 0.0025
TTAATCAGGT | 1.01 ± 0.016
AAATGAGTGG | 0.9783 ± 0.006
AAGTGAATAA | 0.998 ± 0.017
TAGGACTCGG | 0.989 ± 0.024
AGGGGAAGTG | 0.955 ± 0.07
CTTTTAGCTG | 1 ± 0.019
TGGTTGAGGG | 1.01 ± 0.013
